The results in this text go back to patent US20060159681A1 (FUNCTIONAL NEUROSCIENCE, published 2006).

One assay deals with Hsp70 (UniProt P0DMV8 1-641). In words: co-immunoprecipitation from transfected HEK293T lysate. As for the experimental part: (§1) Samples were harvested in lysis-buffer (50 mM Tris-HCl pH 7.4, 150 mM NaCl, 2 mM EDTA, 1% Triton X-100) supplemented with protease inhibitors (Roche). For complete solubilization of the pellet in synphilin ubiquitinylation experiments boiling lysis-buffer with 1% SDS was used. IPs were performed overnight followed by incubation with Protein G sepharose beads (Amersham). PDAs were performed with equimolar amounts of GST- and His-fusion proteins for 1 hr (4° C.). Beads were washed once with lysis-buffer and three times with PBS (pH 7.4).
Therefore, it was tested whether BAG5 may associate with itself by co-transfecting N-terminus GFP-tagged BAG5 (GFP-BAG5) with FLAG-BAG5 in HEK293T cells. […] Indeed, both GFP-BAG5 and GFP-BAG5(DARA) co-immunoprecipitated with FLAG-BAG5(DARA) (FIG. 3E, lane 4 and 6, respectively). It was also confirmed that Hsp70 co-immunoprecipitated with FLAG-BAG5 and not FLAG-BAG5(DARA) (FIG. 3E, lanes 1, 3 and 5 vs. 2, 4 and 6). […] Similar to results from FIG. 3E, GST-BAG5 and GST-BAG5(DARA) interacted with both GFP-BAG5 and GFP-BAG5(DARA), whereas only GST-BAG5 interacted with Hsp70 (FIG. 3F). […] Therefore complexes of BAG5 which contained BAG5(DARA) were unable to bind Hsp70 and inhibited BAG5 activity.

The target in another assay is T1, His-Hsp70 (human, UniProt P0DMV8 1-641).
T1 construct: Purified from E. coli (pDEST17) for the pull-down assays; also called full-length Hsp70; not shown: N-terminal hexa-histidine tag from a pDEST vector
As to the kind of experiment: in vitro GST pull-down. On the procedure:
as §1
To further examine the nature of the association between parkin, Hsp70 and BAG5, in vitro pull-down experiments using GST-Hsp70, GST-BAG5, or GST-BAG5(DARA) with recombinant N-terminus His-tagged parkin were used. […] Thus, BAG5 interacted directly with parkin in the absence of Hsp70.

In assay [1] the target is T2, endogenous Hsp70 in human brain lysate (human, UniProt P0DMV8 2-641).
T2 construct: Native protein in tissue lysate, detected with a monoclonal anti-Hsp70 antibody
As to the kind of experiment: GST pull-down from human brain SNpc lysate.

T2 sequence (P0DMV8 2-641): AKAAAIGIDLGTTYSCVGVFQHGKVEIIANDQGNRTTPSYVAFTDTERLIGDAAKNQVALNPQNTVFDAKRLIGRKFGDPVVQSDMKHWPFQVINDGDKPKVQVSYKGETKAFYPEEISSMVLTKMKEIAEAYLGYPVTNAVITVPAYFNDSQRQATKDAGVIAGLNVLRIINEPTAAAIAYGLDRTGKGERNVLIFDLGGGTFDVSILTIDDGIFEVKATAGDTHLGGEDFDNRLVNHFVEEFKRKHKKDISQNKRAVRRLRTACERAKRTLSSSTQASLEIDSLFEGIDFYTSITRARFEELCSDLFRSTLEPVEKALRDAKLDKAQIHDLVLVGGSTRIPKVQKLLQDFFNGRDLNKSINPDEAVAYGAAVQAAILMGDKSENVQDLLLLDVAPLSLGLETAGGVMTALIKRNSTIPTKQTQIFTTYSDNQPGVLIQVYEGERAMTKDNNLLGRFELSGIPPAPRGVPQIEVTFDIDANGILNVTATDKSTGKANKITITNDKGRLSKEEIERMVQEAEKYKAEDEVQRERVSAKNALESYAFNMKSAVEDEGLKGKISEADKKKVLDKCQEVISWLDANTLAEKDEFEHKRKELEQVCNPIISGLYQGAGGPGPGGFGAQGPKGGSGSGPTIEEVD
T1 sequence (P0DMV8 whole entry): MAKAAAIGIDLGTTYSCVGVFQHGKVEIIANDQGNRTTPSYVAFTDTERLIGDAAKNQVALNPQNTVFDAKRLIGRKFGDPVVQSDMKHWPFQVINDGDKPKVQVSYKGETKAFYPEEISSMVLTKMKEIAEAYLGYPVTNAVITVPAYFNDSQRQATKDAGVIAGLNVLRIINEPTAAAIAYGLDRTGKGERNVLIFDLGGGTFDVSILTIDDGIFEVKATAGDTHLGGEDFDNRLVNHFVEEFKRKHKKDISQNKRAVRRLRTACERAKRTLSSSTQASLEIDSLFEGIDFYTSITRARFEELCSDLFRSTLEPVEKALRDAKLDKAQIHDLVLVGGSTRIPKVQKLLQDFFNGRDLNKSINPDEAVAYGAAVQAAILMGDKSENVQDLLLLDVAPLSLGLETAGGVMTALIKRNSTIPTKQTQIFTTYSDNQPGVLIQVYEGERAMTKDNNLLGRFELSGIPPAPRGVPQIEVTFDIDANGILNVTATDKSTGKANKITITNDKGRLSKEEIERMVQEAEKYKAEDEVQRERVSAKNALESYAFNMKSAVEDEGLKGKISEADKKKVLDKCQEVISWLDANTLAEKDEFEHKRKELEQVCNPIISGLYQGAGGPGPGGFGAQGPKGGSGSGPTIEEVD
Sequence of Hsp70 (P0DMV8 whole entry, the tested form may be a part): as the sequence (P0DMV8 whole entry) above

B1: FLAG-BAG5(DARA) (other, not shown: small tags and cut ends)
chain: MDMGNQHPSISRLQEIQKEVKSVEQQVIGFSGLSDDKNYKKLERILTKQLFEIASVDTEGKGDIQQAAKRAAQETERLLKELEQNANHPHRIEIQNIFEEAQSLVREKIVPFYNGGNCVTDEFEEGIQDIILRLTHVKTGGKISLRKARYHTLTKICAVQEIIEDCMKKQPSLPLSEDAHPSVAKINFVMCEVNKARGVLIALLMGVNNNETCRHLSCVLSGLIADLAALDVCGRTEIRNYAREVVEDINKLLKYLDLEEEADTTKAFDLRQNHSILKIEKVLKRMREIKNELLQAQNPSELYLSSKTELQGLIGQLAEVSLEKNPCIREAARRAVIEVQTLITYIDLKEALEKRKLFACEEHPSHKAVWNVLGNLSEIQGEVLSFDGNRTDKNYIRLEELLTKQLLALAAVDPQGEEKCKAAAKQAVRLAQNILSYLDLKSDEWEY
notes: Expressed by transfection in HEK293T cells
For B1, the binding result with Hsp70 is “no binding”.

B2: GST-BAG5(DARA) (other, not shown: a dimerising Fc or GST; large carriers; small tags and cut ends)
chain: B1 chain
notes: also called mutant BAG5(DARA)
As to B2, the binding result (with His-Hsp70; in assay [1]) was “no binding” throughout.
